Source: publication PMC4680927

Experiments:
[1] = biological target: N-acetyltransferase C-terminal region (CTR) of RmNag (Rhizomucor miehei); assay: not stated; NTR and CTR 'in solution'; the sentence names no method (it follows the SEC estimate for the full-length protein)
[2] = biological target: full-length β-N-acetylglucosaminidase from Rhizomucor miehei (RmNag) (Rhizomucor miehei); assay: SEC; size-exclusion chromatography of full-length RmNag; native molecular mass approx. 230 kDa; data not shown

| stoichiometry N [1] | stoichiometry N [2] | Substance |
| --- | --- | --- |
| 2 |  | N-acetyltransferase C-terminal region (CTR) of RmNag (domain or fragment) |
|  | 2 | full-length β-N-acetylglucosaminidase from Rhizomucor miehei (RmNag) (enzyme) |
